What was measured:
[1] = substrate: CN(CC(=O)O)C(=N)N; experiment: purified protein, by the assay type; settings: other: 37° C., 0.1 mole/liter Tris-HCl (pH 8.0), optimum test conditions, wild type enzyme
[2] = substrate: CN(CC(=O)O)C(=N)N; experiment: purified protein, by the assay type; format: biochemical, Pseudomonas putida; settings: other: 37° C., 0.1 mole/liter Tris-HCl (pH 8.0), optimum test conditions, mutant 109 = Val
Excerpt: (optimum test conditions)

B1: Pseudomonas putida creatine amidinohydrolase, wild type, from Escherichia coli DSM 3143 (pBT 2a-1, DSM 3148P) (Pseudomonas putida) (protein)
chain: MQMPKTLRIRNGDKVRSTFSAQEYANRQARLRAHLAAENIDAAIFTSYHNINYYSDFLYCSFGRPYALVVTEDDVISISANIDGGQPWRRTVGTDNIVYTDWQRDNYFAAIQQALPKARRIGIEHDHLNLQNRDKLAARYPDAELVDVAAACMRMRMIKSAEEHVMIRHGARIADIGGAAVVEALGDQVPEYEVALHATQAMVRAIADTFEDVELMDTWTWFQSGINTDGAHNPVTTRKVNKGDILSLNCFPMIAGYYTALERTLFLDHCSDDHLRLWQVNVEVHEAGLKLIKPGARCSDIARELNEIFLKHDVLQYRTFGYGHSFGTLSHYYGREAGLELREDIDTVLEPGMVVSMEPMIMLPEGLPGAGGYREHDILIVNENGAENITKFPYGPEKNIIRK
With B1 the Km [1] was 25 mM.

B2: Pseudomonas putida creatine amidinohydrolase mutant (Ala109Val and Val355Met), from Escherichia coli DSM 4106 (pBT 119, DSM 4107P) (Pseudomonas putida; … (protein)
chain: MQMPKTLRIRNGDKVRSTFSAQEYANRQARLRAHLAAENIDAAIFTSYHNINYYSDFLYCSFGRPYALVVTEDDVISISANIDGGQPWRRTVGTDNIVYTDWQRDNYFVAIQQALPKARRIGIEHDHLNLQNRDKLAARYPDAELVDVAAACMRMRMIKSAEEHVMIRHGARIADIGGAAVVEALGDQVPEYEVALHATQAMVRAIADTFEDVELMDTWTWFQSGINTDGAHNPVTTRKVNKGDILSLNCFPMIAGYYTALERTLFLDHCSDDHLRLWQVNVEVHEAGLKLIKPGARCSDIARELNEIFLKHDVLQYRTFGYGHSFGTLSHYYGREAGLELREDIDTVLEPGMVMSMEPMIMLPEGLPGAGGYREHDILIVNENGAENITKFPYGPEKNIIRK
notes: made in house; host or cells: Escherichia coli DSM 4106 (plasmid pBT 119, DSM 4107P)
In the case of B2, the Km ([2]; 355 = Met) is reported as 16 mM.

B3: Pseudomonas putida creatine amidinohydrolase mutant (amino acid 109 = Val; Ala109Val), from Escherichia coli DSM 4105 (pBT 109, DSM 4108P) (Pseudomonas putida; … (protein)
chain: MQMPKTLRIRNGDKVRSTFSAQEYANRQARLRAHLAAENIDAAIFTSYHNINYYSDFLYCSFGRPYALVVTEDDVISISANIDGGQPWRRTVGTDNIVYTDWQRDNYFVAIQQALPKARRIGIEHDHLNLQNRDKLAARYPDAELVDVAAACMRMRMIKSAEEHVMIRHGARIADIGGAAVVEALGDQVPEYEVALHATQAMVRAIADTFEDVELMDTWTWFQSGINTDGAHNPVTTRKVNKGDILSLNCFPMIAGYYTALERTLFLDHCSDDHLRLWQVNVEVHEAGLKLIKPGARCSDIARELNEIFLKHDVLQYRTFGYGHSFGTLSHYYGREAGLELREDIDTVLEPGMVVSMEPMIMLPEGLPGAGGYREHDILIVNENGAENITKFPYGPEKNIIRK
notes: made in house; host or cells: Escherichia coli DSM 4105 (plasmid pBT 109, DSM 4108P)
In the case of B3, the Km [2] is reported as 20 mM.

Source: patent US4990453A, “Modified pseudomonas putida creatine amidinohydrolase” (Boehringer Mannheim GmbH, priority 1987, dated 1991)
